Data from publication PMC4405707.

Target: TARP γ-2 (rat) (UniProt Q71RJ2)
Assay: co-IP; GluA2 variants transfected into HEK293T cells stably expressing TARP γ-2; proteins extracted under mild detergent conditions; IP with an anti-γ-2 antibody, blot probed with polyclonal GluA2 antibody; amounts normalized to the input

Chain of TARP γ-2 (rat) (Q71RJ2 whole entry): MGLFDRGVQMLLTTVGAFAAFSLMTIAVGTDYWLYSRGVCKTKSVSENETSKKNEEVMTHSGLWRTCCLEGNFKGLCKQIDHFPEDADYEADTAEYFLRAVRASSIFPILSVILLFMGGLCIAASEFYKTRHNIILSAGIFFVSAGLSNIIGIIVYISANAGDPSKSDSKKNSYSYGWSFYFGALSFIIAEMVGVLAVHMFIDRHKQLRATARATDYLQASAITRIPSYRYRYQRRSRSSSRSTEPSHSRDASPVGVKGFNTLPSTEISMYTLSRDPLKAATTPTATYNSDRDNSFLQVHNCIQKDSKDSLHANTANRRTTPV
Chain of GluA2i-ΔNTD (flip, R607) (P19491 other isoform, or with tags, fused parts or gaps, stated change not applied): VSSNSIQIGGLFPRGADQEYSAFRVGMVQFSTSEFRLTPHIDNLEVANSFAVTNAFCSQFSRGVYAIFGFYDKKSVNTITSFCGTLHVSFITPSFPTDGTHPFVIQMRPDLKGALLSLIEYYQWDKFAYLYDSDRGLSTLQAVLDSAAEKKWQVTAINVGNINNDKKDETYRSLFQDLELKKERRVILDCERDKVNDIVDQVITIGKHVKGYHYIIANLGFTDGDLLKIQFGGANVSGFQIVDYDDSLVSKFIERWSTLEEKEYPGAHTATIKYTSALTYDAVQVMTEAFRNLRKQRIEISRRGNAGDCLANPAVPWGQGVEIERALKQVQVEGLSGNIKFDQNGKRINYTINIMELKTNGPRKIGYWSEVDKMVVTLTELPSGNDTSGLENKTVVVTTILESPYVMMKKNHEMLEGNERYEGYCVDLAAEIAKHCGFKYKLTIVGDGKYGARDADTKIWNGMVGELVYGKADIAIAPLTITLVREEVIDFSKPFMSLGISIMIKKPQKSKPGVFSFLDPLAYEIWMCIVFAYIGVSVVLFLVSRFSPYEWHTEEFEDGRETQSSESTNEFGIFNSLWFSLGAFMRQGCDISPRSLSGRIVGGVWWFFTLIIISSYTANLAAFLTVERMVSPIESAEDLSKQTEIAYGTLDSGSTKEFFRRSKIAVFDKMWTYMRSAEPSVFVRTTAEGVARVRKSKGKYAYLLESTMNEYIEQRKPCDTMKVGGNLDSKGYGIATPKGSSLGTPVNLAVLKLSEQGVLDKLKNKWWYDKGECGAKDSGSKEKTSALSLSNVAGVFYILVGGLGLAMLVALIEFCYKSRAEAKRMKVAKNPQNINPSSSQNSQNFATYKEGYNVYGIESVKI
Chain of GluA2o-R607 ΔNTD (flop Δ-NTD mutant) (P19491 other isoform, or with tags, fused parts or gaps, stated change not applied): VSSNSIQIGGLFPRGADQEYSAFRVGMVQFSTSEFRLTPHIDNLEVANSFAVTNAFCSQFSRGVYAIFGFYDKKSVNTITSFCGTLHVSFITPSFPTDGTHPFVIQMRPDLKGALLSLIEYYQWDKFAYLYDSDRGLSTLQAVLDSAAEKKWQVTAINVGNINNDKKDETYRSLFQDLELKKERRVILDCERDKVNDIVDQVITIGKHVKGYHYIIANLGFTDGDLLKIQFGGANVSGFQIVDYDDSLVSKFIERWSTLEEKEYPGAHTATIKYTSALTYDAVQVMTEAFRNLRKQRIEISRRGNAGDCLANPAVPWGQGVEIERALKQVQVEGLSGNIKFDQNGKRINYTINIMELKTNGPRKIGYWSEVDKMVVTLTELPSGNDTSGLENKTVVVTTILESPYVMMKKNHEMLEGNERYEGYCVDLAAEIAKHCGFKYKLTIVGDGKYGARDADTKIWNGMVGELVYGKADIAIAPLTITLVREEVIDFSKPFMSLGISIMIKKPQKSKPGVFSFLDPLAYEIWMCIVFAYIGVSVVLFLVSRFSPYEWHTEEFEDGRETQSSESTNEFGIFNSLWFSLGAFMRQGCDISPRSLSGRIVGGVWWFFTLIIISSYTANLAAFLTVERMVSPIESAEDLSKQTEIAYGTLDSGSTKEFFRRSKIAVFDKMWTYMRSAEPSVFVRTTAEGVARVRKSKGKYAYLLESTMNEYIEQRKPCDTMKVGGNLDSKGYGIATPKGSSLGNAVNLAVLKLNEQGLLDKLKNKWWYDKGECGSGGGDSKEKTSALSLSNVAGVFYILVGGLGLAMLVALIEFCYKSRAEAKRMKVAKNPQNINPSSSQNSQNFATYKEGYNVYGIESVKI

| Substance | fold reduction of coIP by the Q to R switch (ΔNTD R607 against ΔNTD Q607) | ratio of IPed GluA2i WT to GluA2i-ΔNTD, normalized to the input | fold less efficiently precipitated than the flip ΔNTD counterpart |
| --- | --- | --- | --- |
| GluA2i-ΔNTD (flip, R607) (from UniProt P19491-2 22-883) (receptor) | 2.2 fold | 2.9 fold |  |
| GluA2o-R607 ΔNTD (flop Δ-NTD mutant) (from UniProt P19491 22-883) (receptor) |  |  | 2.9 fold |
